In patent US20180155451A1 (published 2018) one finds He/Con_2aH and He/Con_2b data, which are given here for 16 molecules.

Sequences and labels used below:
B1: GpH7-A5/GpH7-B3 variant P238_16H/GpL16-k0 (antibody, human IgG1, kappa)
heavy 1: not shown
heavy 2: not shown
light: DIVMTQSPLSLPVTPGEPASISCQASESLVHSNRNTYLHWYLQKPGQSPQLLIYKVSNRFSGVPDRFSGSGSGTDFTLKISRVEAEDVGVYYCSQNTHVPPTFGQGTKVEIERTVAAPSVFIFPPSDEQLKSGTASVVCLLNNFYPREAKVQWKVDNALQSGNSQESVTEQDSKDSTYSLSSTLTLSKADYEKHKVYACEVTHQGLSSPVTKSFNRGEC
notes: Heterodimerized anti-glypican-3 IgG1; alteration in the GpH7-B3 chain only; also called He Ab
B2: GpH7-A5/GpH7-B3 variant P238_08L/GpL16-k0 (antibody, human IgG1, kappa)
heavy 1: not shown
heavy 2: not shown
light: B1 light
notes: as for B1
B3: GpH7-A5/GpH7-B3 variant G237_09D/GpL16-k0 (antibody, human IgG1, kappa)
heavy 1: not shown
heavy 2: not shown
light: B1 light
notes: as for B1
B4: GpH7-A5/GpH7-B3 variant L235_20W/GpL16-k0 (antibody, human IgG1, kappa)
heavy 1: not shown
heavy 2: not shown
light: B1 light
notes: as for B1
B5: GpH7-A5/GpH7-B3 variant P238_09D/GpL16-k0 (antibody, human IgG1, kappa)
heavy 1: not shown
heavy 2: not shown
light: B1 light
notes: as for B1
B6: GpH7-A5/GpH7-B3 variant S267_07I/GpL16-k0 (antibody, human IgG1, kappa)
heavy 1: not shown
heavy 2: not shown
light: B1 light
notes: as for B1
B7: GpH7-A5/GpH7-B3 variant G237_20W/GpL16-k0 (antibody, human IgG1, kappa)
heavy 1: not shown
heavy 2: not shown
light: B1 light
notes: as for B1
B8: GpH7-A5/GpH7-B3 variant S267_03V/GpL16-k0 (antibody, human IgG1, kappa)
heavy 1: not shown
heavy 2: not shown
light: B1 light
notes: as for B1
B9: GpH7-A5/GpH7-B3 variant G237_13S/GpL16-k0 (antibody, human IgG1, kappa)
heavy 1: not shown
heavy 2: not shown
light: B1 light
notes: as for B1
B10: GpH7-A5/GpH7-B3 variant G237_18N/GpL16-k0 (antibody, human IgG1, kappa)
heavy 1: not shown
heavy 2: not shown
light: B1 light
notes: as for B1
B11: GpH7-A5/GpH7-B3 variant S267_01G/GpL16-k0 (antibody, human IgG1, kappa)
heavy 1: not shown
heavy 2: not shown
light: B1 light
notes: as for B1
B12: GpH7-A5/GpH7-B3 variant S239_07I/GpL16-k0 (antibody, human IgG1, kappa)
heavy 1: not shown
heavy 2: not shown
light: B1 light
notes: as for B1
B13: GpH7-A5/GpH7-B3 variant S239_06M/GpL16-k0 (antibody, human IgG1, kappa)
heavy 1: not shown
heavy 2: not shown
light: B1 light
notes: as for B1
B14: GpH7-A5/GpH7-B3 variant P238_10E/GpL16-k0 (antibody, human IgG1, kappa)
heavy 1: not shown
heavy 2: not shown
light: B1 light
notes: as for B1
B15: GpH7-A5/GpH7-B3 variant G237_04F/GpL16-k0 (antibody, human IgG1, kappa)
heavy 1: not shown
heavy 2: not shown
light: B1 light
notes: as for B1
B16: GpH7-A5/GpH7-B3 variant L234_10E/GpL16-k0 (antibody, human IgG1, kappa)
heavy 1: not shown
heavy 2: not shown
light: B1 light
notes: as for B1

One experiment has as its target T1, FcγRIIa H (human, UniProt P12318 34-217).
T1 construct: extracellular domain; Soluble extracellular domain with C-terminal His tag, expressed in FreeStyle293 cells; also called FcgRIIa H; 2aH; not shown: C-terminal His tag
T1 sequence (looked up): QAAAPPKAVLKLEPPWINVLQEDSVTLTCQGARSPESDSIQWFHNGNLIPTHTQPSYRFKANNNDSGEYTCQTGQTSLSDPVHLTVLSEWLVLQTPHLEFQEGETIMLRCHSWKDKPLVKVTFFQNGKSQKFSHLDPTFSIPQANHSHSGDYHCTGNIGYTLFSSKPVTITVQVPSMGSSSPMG
Nature of the experiment: SPR (Biacore), antibody captured, FcγR as analyte; relative to HeCon Ab. On the procedure: (§1) The heterodimerized antibodies He Abs in which one of the H chains was introduced with an alteration were assayed for their binding activities to each activating FcγR and inhibitory FcγR according to the method described in Example 4. […] The activating FcγRs in FIGS. 26, 27, 28, and 29 are FcγRIa, FcγRIIa (R), FcγRIIa (H), and FcγRIIIa, respectively.
(§2) Analysis of interaction between objective antibody and the FcγR was carried out using Biacore T100 (GE Healthcare). HBS-EP+ (GE Healthcare) was used as the running buffer, and the measurement temperature was set to 25° C. Chips produced by immobilizing the antigen peptide by the amine coupling method to a Series S Sencor Chip CM5 (GE Healthcare), or alternatively, chips produced by allowing preliminarily biotinylated antigen peptides to interact with and immobilize onto a Series S Sensor Chip SA (certified) (GE Healthcare) were used. Antibodies of interest were captured onto an antigen peptide-immobilized chip, and allowed to interact to each FcγR diluted with running buffer. To regenerate and repeatedly use the chip, the antibodies captured on the chip were washed off by reacting 10 mM glycine-HCl, pH 1.5.
B1: the He/Con_2aH is 45.9 % of GpH7-A5/GpH7-B3/GpL16-k0 (=100).
On the same count and under the same terms, the result for B2 reads 84.6 % of GpH7-A5/GpH7-B3/GpL16-k0 (=100); that for B3, 11.1 % of GpH7-A5/GpH7-B3/GpL16-k0 (=100); that for B4, 118 % of GpH7-A5/GpH7-B3/GpL16-k0 (=100).
Still for that read-out and setting: under B5 stands 87.5 % of GpH7-A5/GpH7-B3/GpL16-k0 (=100).
B6: the He/Con_2aH was 34.7 % of GpH7-A5/GpH7-B3/GpL16-k0 (=100).
For B7, the He/Con_2aH is 31.6 % of GpH7-A5/GpH7-B3/GpL16-k0 (=100).
With B8, the He/Con_2aH is 50.8 % of GpH7-A5/GpH7-B3/GpL16-k0 (=100).
B9: the He/Con_2aH was 29.8 % of GpH7-A5/GpH7-B3/GpL16-k0 (=100).
On the same count and under the same terms, the result for B10 reads 15.2 % of GpH7-A5/GpH7-B3/GpL16-k0 (=100); that for B11, 71.3 % of GpH7-A5/GpH7-B3/GpL16-k0 (=100); that for B12, 91.5 % of GpH7-A5/GpH7-B3/GpL16-k0 (=100).
Still for that read-out and setting: the result for B13 reads 98.6 % of GpH7-A5/GpH7-B3/GpL16-k0 (=100); that for B14, 77.1 % of GpH7-A5/GpH7-B3/GpL16-k0 (=100).
On the same count and under the same terms, under B15 stands 41.4 % of GpH7-A5/GpH7-B3/GpL16-k0 (=100); under B16, 88.3 % of GpH7-A5/GpH7-B3/GpL16-k0 (=100).

The next experiment concerns the target T2, FcγRIIb (human, UniProt P31994 43-217).
T2 construct: extracellular domain; Soluble extracellular domain with C-terminal His tag, expressed in FreeStyle293 cells; also called FcgRIIb; 2b; not shown: C-terminal His tag
T2 sequence (looked up): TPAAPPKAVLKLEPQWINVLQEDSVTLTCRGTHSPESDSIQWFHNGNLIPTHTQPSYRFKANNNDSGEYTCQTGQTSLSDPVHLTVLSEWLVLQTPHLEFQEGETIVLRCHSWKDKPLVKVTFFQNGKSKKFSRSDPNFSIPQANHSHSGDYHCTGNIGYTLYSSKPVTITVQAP
Described as above. On the procedure:
as §1, §2
For the molecule B1, the He/Con_2b is 115 % of GpH7-A5/GpH7-B3/GpL16-k0 (=100).
Same read-out and setting: under B2 stands 204 % of GpH7-A5/GpH7-B3/GpL16-k0 (=100); under B3, 223 % of GpH7-A5/GpH7-B3/GpL16-k0 (=100).
On the same count and under the same terms, under B4 stands 147 % of GpH7-A5/GpH7-B3/GpL16-k0 (=100); under B5, 221 % of GpH7-A5/GpH7-B3/GpL16-k0 (=100).
In the case of B6, the He/Con_2b was 192 % of GpH7-A5/GpH7-B3/GpL16-k0 (=100).
The same measure, in the same setting: under B7 stands 193 % of GpH7-A5/GpH7-B3/GpL16-k0 (=100); under B8, 192 % of GpH7-A5/GpH7-B3/GpL16-k0 (=100).
On to B9, for which the He/Con_2b was 111 % of GpH7-A5/GpH7-B3/GpL16-k0 (=100).
Same read-out and setting: the result for B10 reads 180 % of GpH7-A5/GpH7-B3/GpL16-k0 (=100).
The same measure, in the same setting: under B11 stands 105 % of GpH7-A5/GpH7-B3/GpL16-k0 (=100); under B12, 107 % of GpH7-A5/GpH7-B3/GpL16-k0 (=100).
On the same count and under the same terms, under B13 stands 101 % of GpH7-A5/GpH7-B3/GpL16-k0 (=100); under B14, 232 % of GpH7-A5/GpH7-B3/GpL16-k0 (=100).
On to B15, for which the He/Con_2b was 149 % of GpH7-A5/GpH7-B3/GpL16-k0 (=100).
The same measure, in the same setting: the result for B16 reads 118 % of GpH7-A5/GpH7-B3/GpL16-k0 (=100).
